Laboratory results taken from the supplement of paper PMC9170038.

Test system: K4 kissing-loop RNA reporter
Assay: apparent KD of K4 kissing-loop reporter; higher = weaker reporter binding
Conditions: Eterna round: R107
Description: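 RNA-MaP round R107: designed RNA switches with theophylline, tryptophan, arginine or FMN aptamers are transcribed on-chip within common flanks. They are titrated with a labelled K4 kissing-loop RNA reporter in RNA-MaP buffer (100 mM Tris pH 7.5, 80 mM KCl, 4 mM MgCl2), without ligand or with the indicated ligand. Median apparent KD per design.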

[1] = input ligand: theophylline 20 uM
[2] = input ligand: tryptophan 2.4 mM
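Also: bound reporter read as fluorescence of individual clusters on recovered sequencing chips by microscopy, with normalized cluster intensities fitted with a binding model.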

## UAAUUUAUGUCUUUAAUAUAAUAAUCAGAUACCAGUGAUUAAUGACACCCUUGGCAGCUGUAUAGAGUGAUGUUCUUAUGCUUAA [JR_ExcTheophyA_Sub010]
Input ligand: FMN 200 uM
  apparent KD of K4 kissing-loop reporter: 0.245 µM
Input ligand: arginine 13.2 mM
  apparent KD of K4 kissing-loop reporter: 0.316 µM
Input ligand: none
  apparent KD of K4 kissing-loop reporter: 0.288 µM
[1]
  apparent KD of K4 kissing-loop reporter: 0.364 µM
[2]
  apparent KD of K4 kissing-loop reporter: 0.179 µM

## UACCCGUGCUACUCCAUCCAUGCCACACCGCGAGGACCGGUACGGCCGCCACUCGUCGGAAAGUGAUGUUUUCAAACAAAGUUGC
Input ligand: FMN 200 uM
  apparent KD of K4 kissing-loop reporter: 0.151 µM
Input ligand: arginine 13.2 mM
  apparent KD of K4 kissing-loop reporter: 0.0934 µM
Input ligand: none
  apparent KD of K4 kissing-loop reporter: 0.142 µM
[1]
  apparent KD of K4 kissing-loop reporter: 0.292 µM
[2]
  apparent KD of K4 kissing-loop reporter: 0.0769 µM

## UACCUGCUGUCAGGAUAUGAGUGCAGUGAUGUUGCACUCAACGUAACCAUCUUGAAAUACAAACACUCAGAAGGGACGCACGAAG [Isattema]
Input ligand: FMN 200 uM
  apparent KD of K4 kissing-loop reporter: 0.183 µM
Input ligand: arginine 13.2 mM
  apparent KD of K4 kissing-loop reporter: 0.0959 µM
Input ligand: none
  apparent KD of K4 kissing-loop reporter: 0.14 µM
[1]
  apparent KD of K4 kissing-loop reporter: 0.167 µM
[2]
  apparent KD of K4 kissing-loop reporter: 0.191 µM

## UACGCUGCCUGAGGAUAUAGAAACGAGUGAUGUUCGUGGAUAAGAGCCAGUGAUGUUGGGUUAUUUCUAGAAGGCAGGUAAAGUA [Exclusion FMN B GF6]
Input ligand: FMN 200 uM
  apparent KD of K4 kissing-loop reporter: 0.106 µM
Input ligand: arginine 13.2 mM
  apparent KD of K4 kissing-loop reporter: 0.0891 µM
Input ligand: none
  apparent KD of K4 kissing-loop reporter: 0.102 µM
[1]
  apparent KD of K4 kissing-loop reporter: 0.0958 µM
[2]
  apparent KD of K4 kissing-loop reporter: 0.1 µM

## UACUAUAGUGAUGUUAUAGAUAAAACAGAUACCAGUGUUACAUAACACCCUUGGCAGCUGAAAAGGGAAAGUAUAAAUGUGUAUU [AstrosSSTHe-A#1newdesignED]
Input ligand: FMN 200 uM
  apparent KD of K4 kissing-loop reporter: 0.156 µM
Input ligand: arginine 13.2 mM
  apparent KD of K4 kissing-loop reporter: 0.127 µM
Input ligand: none
  apparent KD of K4 kissing-loop reporter: 0.133 µM
[1]
  apparent KD of K4 kissing-loop reporter: 0.125 µM
[2]
  apparent KD of K4 kissing-loop reporter: 0.129 µM

## UACUAUAUUCUGUCGUUUUUAUUAGUUUGUCAGGAUAUCGUUUAUUCGAGAAGGGACACUGUCUAGUGAUGUUAGACAUUUCUUU [#04 K4 FMN A Exclusion]
Input ligand: FMN 200 uM
  apparent KD of K4 kissing-loop reporter: 0.0683 µM
Input ligand: arginine 13.2 mM
  apparent KD of K4 kissing-loop reporter: 0.0907 µM
Input ligand: none
  apparent KD of K4 kissing-loop reporter: 0.0885 µM
[1]
  apparent KD of K4 kissing-loop reporter: 0.087 µM
[2]
  apparent KD of K4 kissing-loop reporter: 0.0755 µM

## UAGAGGAGACUCUAAUUCCUUAAGUCCGAAGGAGCGACCCAAUGGUCAGGUAGGUCGCGGACAAUCCUAGUGAUGUUAGGAUCUG [Arg A SS t5a]
Input ligand: FMN 200 uM
  apparent KD of K4 kissing-loop reporter: 0.141 µM
Input ligand: arginine 13.2 mM
  apparent KD of K4 kissing-loop reporter: 0.136 µM
Input ligand: none
  apparent KD of K4 kissing-loop reporter: 0.16 µM
[1]
  apparent KD of K4 kissing-loop reporter: 0.17 µM
[2]
  apparent KD of K4 kissing-loop reporter: 0.129 µM

## UAGAUGUUGUAAGAUAUUGAUAGUCGGGAAGGAGCGCUCACAAUAGCAGGUAGGUCGCCCGACAGUGUUAGGAGUGAUGUUCCUU [7.)]
Input ligand: FMN 200 uM
  apparent KD of K4 kissing-loop reporter: 0.0929 µM
Input ligand: arginine 13.2 mM
  apparent KD of K4 kissing-loop reporter: 0.119 µM
Input ligand: none
  apparent KD of K4 kissing-loop reporter: 0.0979 µM
[1]
  apparent KD of K4 kissing-loop reporter: 0.121 µM
[2]
  apparent KD of K4 kissing-loop reporter: 0.0835 µM

## UAGCGGGCGAUUCGACGUGCGUCCAGUCAUCGAGGACCGGUACGGCCGCCACUCGCCGGAGUGAUGUUCCGGUACGUCAUAUAAU [theeternabot_sameState_KL_Trp_A_35]
Input ligand: FMN 200 uM
  apparent KD of K4 kissing-loop reporter: 0.406 µM
Input ligand: arginine 13.2 mM
  apparent KD of K4 kissing-loop reporter: 0.358 µM
Input ligand: none
  apparent KD of K4 kissing-loop reporter: 0.398 µM
[1]
  apparent KD of K4 kissing-loop reporter: 0.422 µM
[2]
  apparent KD of K4 kissing-loop reporter: 0.197 µM

## UAGCGGUGGAGGCCACCGCUAUUCUGAGAAGGAGCGCAGAUGACUGCAGGUAGGUCGCUUAGAGCUUGCAGUGAUGUUGCAAGUU [Araatlaqu]
Input ligand: FMN 200 uM
  apparent KD of K4 kissing-loop reporter: 0.191 µM
Input ligand: arginine 13.2 mM
  apparent KD of K4 kissing-loop reporter: 0.144 µM
Input ligand: none
  apparent KD of K4 kissing-loop reporter: 0.191 µM
[1]
  apparent KD of K4 kissing-loop reporter: 0.223 µM
[2]
  apparent KD of K4 kissing-loop reporter: 0.177 µM

## UAGUCAUACAGAGGAUAUCGUAUGAGUGAUGUUCAAGUGCGUACAUCAACUUGAUGUACAGAUAGACGAGAAGGCUGUAUGACUA [FMB B SS t6]
Input ligand: FMN 200 uM
  apparent KD of K4 kissing-loop reporter: 0.303 µM
Input ligand: arginine 13.2 mM
  apparent KD of K4 kissing-loop reporter: 0.382 µM
Input ligand: none
  apparent KD of K4 kissing-loop reporter: 0.487 µM
[1]
  apparent KD of K4 kissing-loop reporter: 0.449 µM
[2]
  apparent KD of K4 kissing-loop reporter: 0.492 µM

## UAGUCCUAGUGAUGGUCAUCACGUGGCGGGCGAGGACCGGUACGGCCGCCACUCGACUUUGCAGUGAUGUUGCAAACCGGACAAU [Exclusion - Tryptophan A (Freestyle 20)]
Input ligand: FMN 200 uM
  apparent KD of K4 kissing-loop reporter: 0.144 µM
Input ligand: arginine 13.2 mM
  apparent KD of K4 kissing-loop reporter: 0.134 µM
Input ligand: none
  apparent KD of K4 kissing-loop reporter: 0.133 µM
[1]
  apparent KD of K4 kissing-loop reporter: 0.136 µM
[2]
  apparent KD of K4 kissing-loop reporter: 0.191 µM

## UAGUCCUAGUGAUGGUUAUCACGUGGUGGGCGAGGACCGGUACGGCCGCCACUCGACUUUGCAGUGAUGUUGCAAACCGGACAAU [Exclusion - Tryptophan A (Freestyle 18)]
Input ligand: FMN 200 uM
  apparent KD of K4 kissing-loop reporter: 0.228 µM
Input ligand: arginine 13.2 mM
  apparent KD of K4 kissing-loop reporter: 0.278 µM
Input ligand: none
  apparent KD of K4 kissing-loop reporter: 0.237 µM
[1]
  apparent KD of K4 kissing-loop reporter: 0.287 µM
[2]
  apparent KD of K4 kissing-loop reporter: 0.237 µM

## UAGUGAAUAGAAGGAUAUUGAUAUGAAAGAUGCAGUGAUGUUGCCCGUAGCAGUCAGUAAUACGUGCAAGAAGGUCUGUGCGCGA [theeternabot_exclusion_KL_FMN_B_3]
Input ligand: FMN 200 uM
  apparent KD of K4 kissing-loop reporter: 0.0652 µM
Input ligand: arginine 13.2 mM
  apparent KD of K4 kissing-loop reporter: 0.0954 µM
Input ligand: none
  apparent KD of K4 kissing-loop reporter: 0.0692 µM
[1]
  apparent KD of K4 kissing-loop reporter: 0.127 µM
[2]
  apparent KD of K4 kissing-loop reporter: 0.0624 µM

## UAGUGAUGCUAUGUUAGGUUUUUUAGGGAAGGAGCGCCAAAGAAGGCAGGUAGGUCGCCCUAUAUUCCCAGUGAUGUUGGGUAUU [Skye_Ex_AA]
Input ligand: FMN 200 uM
  apparent KD of K4 kissing-loop reporter: 0.0648 µM
Input ligand: arginine 13.2 mM
  apparent KD of K4 kissing-loop reporter: 0.0506 µM
Input ligand: none
  apparent KD of K4 kissing-loop reporter: 0.0749 µM
[1]
  apparent KD of K4 kissing-loop reporter: 0.0936 µM
[2]
  apparent KD of K4 kissing-loop reporter: 0.0655 µM

## UAGUGUCGCGCAGGAUAUACUGAUUGGAGUGAUGUUCCAAACAUGAACGUGAGACUUUUACAAGAAGUAGAAGGGCGUGAGACAU [Exclusion FMN B GF 21]
Input ligand: FMN 200 uM
  apparent KD of K4 kissing-loop reporter: 0.276 µM
Input ligand: arginine 13.2 mM
  apparent KD of K4 kissing-loop reporter: 0.32 µM
Input ligand: none
  apparent KD of K4 kissing-loop reporter: 0.405 µM
[1]
  apparent KD of K4 kissing-loop reporter: 0.393 µM
[2]
  apparent KD of K4 kissing-loop reporter: 0.404 µM

## UAUAAUUCGGCGGCCGCCACUGACCAUAGCCUUCGAUGGCCAGUGAUGUUGGCCUCUGGCUCUAACAGGACCGGGCCGAAUUGCG [Aririmaus]
Input ligand: FMN 200 uM
  apparent KD of K4 kissing-loop reporter: 0.228 µM
Input ligand: arginine 13.2 mM
  apparent KD of K4 kissing-loop reporter: 0.179 µM
Input ligand: none
  apparent KD of K4 kissing-loop reporter: 0.26 µM
[1]
  apparent KD of K4 kissing-loop reporter: 0.277 µM
[2]
  apparent KD of K4 kissing-loop reporter: 0.135 µM

## UAUACUAGACAAGAGAGAAUUCUCUCAAGAGAGGAUAUCCGAAUUCGGAGAAGGCUCUCUCAGUGAUGUUGGGUAUAGUCUAGAA [AK7 SS FMN A]
Input ligand: FMN 200 uM
  apparent KD of K4 kissing-loop reporter: 0.26 µM
Input ligand: arginine 13.2 mM
  apparent KD of K4 kissing-loop reporter: 0.222 µM
Input ligand: none
  apparent KD of K4 kissing-loop reporter: 0.323 µM
[1]
  apparent KD of K4 kissing-loop reporter: 0.389 µM
[2]
  apparent KD of K4 kissing-loop reporter: 0.299 µM

## UAUAUACAUUUAUUAAUUAAAGGUUCAGAAGGAGCGUGAAUUAACACAGGUAGGUCGCUGAGCGAGUGAUGUUCGCUAUAUGGUA [JR_ExcArginiA_Sub005]
Input ligand: FMN 200 uM
  apparent KD of K4 kissing-loop reporter: 0.0663 µM
Input ligand: arginine 13.2 mM
  apparent KD of K4 kissing-loop reporter: 0.0726 µM
Input ligand: none
  apparent KD of K4 kissing-loop reporter: 0.0705 µM
[1]
  apparent KD of K4 kissing-loop reporter: 0.0871 µM
[2]
  apparent KD of K4 kissing-loop reporter: 0.0557 µM

## UAUCAGAUUACUGAUACCAGUCUAAAGACAGUGAUGUUGUCUGAUCGACCACGAUCAAAGGACCCUUGGCAGCAGUGUACUAUUC [#29 K4 Theophylline B Same State]
Input ligand: FMN 200 uM
  apparent KD of K4 kissing-loop reporter: 0.197 µM
Input ligand: arginine 13.2 mM
  apparent KD of K4 kissing-loop reporter: 0.203 µM
Input ligand: none
  apparent KD of K4 kissing-loop reporter: 0.192 µM
[1]
  apparent KD of K4 kissing-loop reporter: 0.188 µM
[2]
  apparent KD of K4 kissing-loop reporter: 0.199 µM

## UAUCUUUGCUGAAGGAGCGAGCAUGUUGGAGUGAUGUUCCGAGCGAGUGAUGUUCGCAUAGCUCAGGUAGGUCGCAGUGGGAGGA [Same State Arginie B GF 16]
Input ligand: FMN 200 uM
  apparent KD of K4 kissing-loop reporter: 0.129 µM
Input ligand: arginine 13.2 mM
  apparent KD of K4 kissing-loop reporter: 0.111 µM
Input ligand: none
  apparent KD of K4 kissing-loop reporter: 0.147 µM
[1]
  apparent KD of K4 kissing-loop reporter: 0.164 µM
[2]
  apparent KD of K4 kissing-loop reporter: 0.135 µM
